For this data set, the target named is T1, β-casein, P02666.
T1 chain: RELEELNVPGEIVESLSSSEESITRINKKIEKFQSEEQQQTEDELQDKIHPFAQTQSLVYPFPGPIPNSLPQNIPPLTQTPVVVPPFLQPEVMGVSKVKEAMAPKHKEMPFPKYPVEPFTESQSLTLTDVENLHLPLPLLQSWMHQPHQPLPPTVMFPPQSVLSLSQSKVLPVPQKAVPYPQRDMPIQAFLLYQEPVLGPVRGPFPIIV
The note with it: scale: % cleavage of non-glycosylated camel chymosin.

B1: camel chymosin variant 293 (Y190A+N100Q+N291Q) (protein)
chain: GKVAREPLTSYLDSQYFGKIYIGTPPQEFTVVFDTGSSDLWVPSIYCKSNVCKNHHRFDPRKSSTFRNLGKPLSIHYGTGSMEGFLGYDTVTVSNIVDPQQTVGLSTEQPGEVFTYSEFDGILGLAYPSLASEYSVPVFDNMMDRHLVARDLFSVYMDRNGQGSMLTLGAIDPSYYTGSLHWVPVTLQQAWQFTVDSVTINGVAVACVGGCQAILDTGTSVLFGPSSDILKIQMAIGATENRYGEFDVNCGNLRSMPTVVFEINGRDYPLSPSAYTSKDQGFCTSGFQGDQNSELWILGDVFIREYYSVFDRANNRVGLAKAI
B1 returned a β(193-209): cleavage of β-casein at position 192/193 of 28.

B2: camel chymosin variant 308 (S273D+N100Q+N291Q) (protein)
chain: GKVAREPLTSYLDSQYFGKIYIGTPPQEFTVVFDTGSSDLWVPSIYCKSNVCKNHHRFDPRKSSTFRNLGKPLSIHYGTGSMEGFLGYDTVTVSNIVDPQQTVGLSTEQPGEVFTYSEFDGILGLAYPSLASEYSVPVFDNMMDRHLVARDLFSVYMDRNGQGSMLTLGAIDPSYYTGSLHWVPVTLQQYWQFTVDSVTINGVAVACVGGCQAILDTGTSVLFGPSSDILKIQMAIGATENRYGEFDVNCGNLRSMPTVVFEINGRDYPLSPDAYTSKDQGFCTSGFQGDQNSELWILGDVFIREYYSVFDRANNRVGLAKAI
The protein B2 came in with a β(193-209): cleavage of β-casein at position 192/193 of 66.

B3: camel chymosin variant 270 (V32L+N100Q+N291Q) (protein)
chain: GKVAREPLTSYLDSQYFGKIYIGTPPQEFTVLFDTGSSDLWVPSIYCKSNVCKNHHRFDPRKSSTFRNLGKPLSIHYGTGSMEGFLGYDTVTVSNIVDPQQTVGLSTEQPGEVFTYSEFDGILGLAYPSLASEYSVPVFDNMMDRHLVARDLFSVYMDRNGQGSMLTLGAIDPSYYTGSLHWVPVTLQQYWQFTVDSVTINGVAVACVGGCQAILDTGTSVLFGPSSDILKIQMAIGATENRYGEFDVNCGNLRSMPTVVFEINGRDYPLSPSAYTSKDQGFCTSGFQGDQNSELWILGDVFIREYYSVFDRANNRVGLAKAI
B3 had a β(193-209): cleavage of β-casein at position 192/193 of 28.

B4: camel chymosin variant 307 (Y243E+N100Q+N291Q) (protein)
chain: GKVAREPLTSYLDSQYFGKIYIGTPPQEFTVVFDTGSSDLWVPSIYCKSNVCKNHHRFDPRKSSTFRNLGKPLSIHYGTGSMEGFLGYDTVTVSNIVDPQQTVGLSTEQPGEVFTYSEFDGILGLAYPSLASEYSVPVFDNMMDRHLVARDLFSVYMDRNGQGSMLTLGAIDPSYYTGSLHWVPVTLQQYWQFTVDSVTINGVAVACVGGCQAILDTGTSVLFGPSSDILKIQMAIGATENREGEFDVNCGNLRSMPTVVFEINGRDYPLSPSAYTSKDQGFCTSGFQGDQNSELWILGDVFIREYYSVFDRANNRVGLAKAI
B4 had a β(193-209): cleavage of β-casein at position 192/193 of 62.

B5: camel chymosin variant 303 (L130I+N100Q+N291Q) (protein)
chain: GKVAREPLTSYLDSQYFGKIYIGTPPQEFTVVFDTGSSDLWVPSIYCKSNVCKNHHRFDPRKSSTFRNLGKPLSIHYGTGSMEGFLGYDTVTVSNIVDPQQTVGLSTEQPGEVFTYSEFDGILGLAYPSIASEYSVPVFDNMMDRHLVARDLFSVYMDRNGQGSMLTLGAIDPSYYTGSLHWVPVTLQQYWQFTVDSVTINGVAVACVGGCQAILDTGTSVLFGPSSDILKIQMAIGATENRYGEFDVNCGNLRSMPTVVFEINGRDYPLSPSAYTSKDQGFCTSGFQGDQNSELWILGDVFIREYYSVFDRANNRVGLAKAI
In the case of B5, the β(193-209): cleavage of β-casein at position 192/193 is 29.

B6: camel chymosin variant 272 (D290E+N100Q+N291Q) (protein)
chain: GKVAREPLTSYLDSQYFGKIYIGTPPQEFTVVFDTGSSDLWVPSIYCKSNVCKNHHRFDPRKSSTFRNLGKPLSIHYGTGSMEGFLGYDTVTVSNIVDPQQTVGLSTEQPGEVFTYSEFDGILGLAYPSLASEYSVPVFDNMMDRHLVARDLFSVYMDRNGQGSMLTLGAIDPSYYTGSLHWVPVTLQQYWQFTVDSVTINGVAVACVGGCQAILDTGTSVLFGPSSDILKIQMAIGATENRYGEFDVNCGNLRSMPTVVFEINGRDYPLSPSAYTSKDQGFCTSGFQGEQNSELWILGDVFIREYYSVFDRANNRVGLAKAI
For the protein B6, the β(193-209): cleavage of β-casein at position 192/193 was 60.

B7: camel chymosin variant 304 (S132A+N100Q+N291Q) (protein)
chain: GKVAREPLTSYLDSQYFGKIYIGTPPQEFTVVFDTGSSDLWVPSIYCKSNVCKNHHRFDPRKSSTFRNLGKPLSIHYGTGSMEGFLGYDTVTVSNIVDPQQTVGLSTEQPGEVFTYSEFDGILGLAYPSLAAEYSVPVFDNMMDRHLVARDLFSVYMDRNGQGSMLTLGAIDPSYYTGSLHWVPVTLQQYWQFTVDSVTINGVAVACVGGCQAILDTGTSVLFGPSSDILKIQMAIGATENRYGEFDVNCGNLRSMPTVVFEINGRDYPLSPSAYTSKDQGFCTSGFQGDQNSELWILGDVFIREYYSVFDRANNRVGLAKAI
Protein B7 returned a β(193-209): cleavage of β-casein at position 192/193 of 28.

B8: camel chymosin variant 276 (G289S+N100Q+N291Q) (protein)
chain: GKVAREPLTSYLDSQYFGKIYIGTPPQEFTVVFDTGSSDLWVPSIYCKSNVCKNHHRFDPRKSSTFRNLGKPLSIHYGTGSMEGFLGYDTVTVSNIVDPQQTVGLSTEQPGEVFTYSEFDGILGLAYPSLASEYSVPVFDNMMDRHLVARDLFSVYMDRNGQGSMLTLGAIDPSYYTGSLHWVPVTLQQYWQFTVDSVTINGVAVACVGGCQAILDTGTSVLFGPSSDILKIQMAIGATENRYGEFDVNCGNLRSMPTVVFEINGRDYPLSPSAYTSKDQGFCTSGFQSDQNSELWILGDVFIREYYSVFDRANNRVGLAKAI
For B8, the β(193-209): cleavage of β-casein at position 192/193 stood at 51.

B9: camel chymosin variant 296 (S273Y+N100Q+N291Q) (protein)
chain: GKVAREPLTSYLDSQYFGKIYIGTPPQEFTVVFDTGSSDLWVPSIYCKSNVCKNHHRFDPRKSSTFRNLGKPLSIHYGTGSMEGFLGYDTVTVSNIVDPQQTVGLSTEQPGEVFTYSEFDGILGLAYPSLASEYSVPVFDNMMDRHLVARDLFSVYMDRNGQGSMLTLGAIDPSYYTGSLHWVPVTLQQYWQFTVDSVTINGVAVACVGGCQAILDTGTSVLFGPSSDILKIQMAIGATENRYGEFDVNCGNLRSMPTVVFEINGRDYPLSPYAYTSKDQGFCTSGFQGDQNSELWILGDVFIREYYSVFDRANNRVGLAKAI
Turning to B9, the β(193-209): cleavage of β-casein at position 192/193 worked out at 58.

B10: camel chymosin variant 299 (L222I+N100Q+N291Q) (protein)
chain: GKVAREPLTSYLDSQYFGKIYIGTPPQEFTVVFDTGSSDLWVPSIYCKSNVCKNHHRFDPRKSSTFRNLGKPLSIHYGTGSMEGFLGYDTVTVSNIVDPQQTVGLSTEQPGEVFTYSEFDGILGLAYPSLASEYSVPVFDNMMDRHLVARDLFSVYMDRNGQGSMLTLGAIDPSYYTGSLHWVPVTLQQYWQFTVDSVTINGVAVACVGGCQAILDTGTSVIFGPSSDILKIQMAIGATENRYGEFDVNCGNLRSMPTVVFEINGRDYPLSPSAYTSKDQGFCTSGFQGDQNSELWILGDVFIREYYSVFDRANNRVGLAKAI
As for B10, the β(193-209): cleavage of β-casein at position 192/193 is 54.

B11: camel chymosin variant 305 (S226T+N100Q+N291Q) (protein)
chain: GKVAREPLTSYLDSQYFGKIYIGTPPQEFTVVFDTGSSDLWVPSIYCKSNVCKNHHRFDPRKSSTFRNLGKPLSIHYGTGSMEGFLGYDTVTVSNIVDPQQTVGLSTEQPGEVFTYSEFDGILGLAYPSLASEYSVPVFDNMMDRHLVARDLFSVYMDRNGQGSMLTLGAIDPSYYTGSLHWVPVTLQQYWQFTVDSVTINGVAVACVGGCQAILDTGTSVLFGPTSDILKIQMAIGATENRYGEFDVNCGNLRSMPTVVFEINGRDYPLSPSAYTSKDQGFCTSGFQGDQNSELWILGDVFIREYYSVFDRANNRVGLAKAI
Protein B11 registered a β(193-209): cleavage of β-casein at position 192/193 of 44.

B12: camel chymosin variant 275 (R242Q+N100Q+N291Q) (protein)
chain: GKVAREPLTSYLDSQYFGKIYIGTPPQEFTVVFDTGSSDLWVPSIYCKSNVCKNHHRFDPRKSSTFRNLGKPLSIHYGTGSMEGFLGYDTVTVSNIVDPQQTVGLSTEQPGEVFTYSEFDGILGLAYPSLASEYSVPVFDNMMDRHLVARDLFSVYMDRNGQGSMLTLGAIDPSYYTGSLHWVPVTLQQYWQFTVDSVTINGVAVACVGGCQAILDTGTSVLFGPSSDILKIQMAIGATENQYGEFDVNCGNLRSMPTVVFEINGRDYPLSPSAYTSKDQGFCTSGFQGDQNSELWILGDVFIREYYSVFDRANNRVGLAKAI
Take B12: the β(193-209): cleavage of β-casein at position 192/193 was 74.

B13: camel chymosin variant 295 (H76Q+N100Q+N291Q) (protein)
chain: GKVAREPLTSYLDSQYFGKIYIGTPPQEFTVVFDTGSSDLWVPSIYCKSNVCKNHHRFDPRKSSTFRNLGKPLSIQYGTGSMEGFLGYDTVTVSNIVDPQQTVGLSTEQPGEVFTYSEFDGILGLAYPSLASEYSVPVFDNMMDRHLVARDLFSVYMDRNGQGSMLTLGAIDPSYYTGSLHWVPVTLQQYWQFTVDSVTINGVAVACVGGCQAILDTGTSVLFGPSSDILKIQMAIGATENRYGEFDVNCGNLRSMPTVVFEINGRDYPLSPSAYTSKDQGFCTSGFQGDQNSELWILGDVFIREYYSVFDRANNRVGLAKAI
Protein B13 registered a β(193-209): cleavage of β-casein at position 192/193 of 48.

B14: camel chymosin variant 280 (D290L+N100Q+N291Q) (protein)
chain: GKVAREPLTSYLDSQYFGKIYIGTPPQEFTVVFDTGSSDLWVPSIYCKSNVCKNHHRFDPRKSSTFRNLGKPLSIHYGTGSMEGFLGYDTVTVSNIVDPQQTVGLSTEQPGEVFTYSEFDGILGLAYPSLASEYSVPVFDNMMDRHLVARDLFSVYMDRNGQGSMLTLGAIDPSYYTGSLHWVPVTLQQYWQFTVDSVTINGVAVACVGGCQAILDTGTSVLFGPSSDILKIQMAIGATENRYGEFDVNCGNLRSMPTVVFEINGRDYPLSPSAYTSKDQGFCTSGFQGLQNSELWILGDVFIREYYSVFDRANNRVGLAKAI
On to B14, for which the β(193-209): cleavage of β-casein at position 192/193 turned out to be 58.

B15: camel chymosin variant 306 (G251D+N100Q+N291Q) (protein)
chain: GKVAREPLTSYLDSQYFGKIYIGTPPQEFTVVFDTGSSDLWVPSIYCKSNVCKNHHRFDPRKSSTFRNLGKPLSIHYGTGSMEGFLGYDTVTVSNIVDPQQTVGLSTEQPGEVFTYSEFDGILGLAYPSLASEYSVPVFDNMMDRHLVARDLFSVYMDRNGQGSMLTLGAIDPSYYTGSLHWVPVTLQQYWQFTVDSVTINGVAVACVGGCQAILDTGTSVLFGPSSDILKIQMAIGATENRYGEFDVNCDNLRSMPTVVFEINGRDYPLSPSAYTSKDQGFCTSGFQGDQNSELWILGDVFIREYYSVFDRANNRVGLAKAI
For B15, the β(193-209): cleavage of β-casein at position 192/193 is 88.

These data come from patent US20180187179.
